Results reported in patent publication US8344120B2, “Nucleic acid molecules encoding rage fusion proteins” (TransTech Pharma, Inc., priority 2006, dated 2013).

How the values were obtained:
[1] = test system: S100b/RAGE-induced production of TNF-α in THP-1 cells; assay: S100b/RAGE-induced production of TNF-α in THP-1 cells; format: cell-based; conditions: 10 μg protein, 24 hours
Text: Use of the RAGE fusion proteins of the present invention to modulate expression of the cellular effector TNF-α is shown in FIG. 10. THP-1 myeloid cells may be cultured in RPMI-1640 media supplemented with 10% FBS and induced to secrete TNF-α via stimulation of RAGE with S100b. When such stimulation occurs in the presence of a RAGE fusion protein, induction of TNF-α by S100b binding to RAGE may be inhibited.
Previous work has shown that the myeloid THP-1 cells may secrete TNF-α in response to RAGE ligands. In this assay, THP-1 cells were cultured in RPMI-1640 media supplemented with 10% FBS using a protocol provided by ATCC. […] The amount of TNF-α secreted by the THP-1 cells was measured 24 hours after the addition of the proteins to the cell culture using a commercially available ELISA kit for TNF-α (R&D Systems, Minneapolis, Minn.).

[2] = test system: diabetic rat model of restenosis; assay: Diabetic rat model of restenosis; format: in vivo, rats; conditions: for Intimal area / Medial area: IP, 21 days
Method: Use of the RAGE fusion proteins in the treatment of diabetes related pathology is illustrated in FIG. 14.
In these experiments, balloon injury of left common carotid artery was performed in Zucker diabetic and nondiabetic rats using standard procedure. […] A maintenance dose was delivered every other day until day 7 after injury (i.e., at day 1, 3, 5 and 7 after injury). The maintenance dose was high=1 mg/animal for one group, or low=0.3 mg/animal for the second group. To measure vascular smooth muscle cell (VSMC) proliferation, animals were sacrificed at 4 days and 21 days after injury.
For the measurement of cell proliferation, 4 day animals received intraperitoneal injection of bromodeoxyuridine (BrDdU) 50 mg/kg at 18, 12, and 2 hours before euthanasia. After sacrifice, the entire left and right carotid arteries were harvested. Specimens were stored in Histochoice for at least 24 hours before embedding. Assessment of VSMC proliferation was performed using mouse anti-BrdU monoclonal antibody. A fluorescence labeled goat anti-mouse secondary antibody was applied. The number of BrdU-positive nuclei per section were counted by two observers blinded to the treatment regimens.
The remaining rats were sacrificed at 21 days for morphometric analysis. Morphometric analyses were performed by an observer blinded to the study groups, using computerized digital microscopic planimetry software Image-Pro Plus on serial sections, ([…]) carotid arteries stained by Van Gieson staining. All data were expressed as mean±SD. Statistical analysis was performed with use of SPSS software. Continuous variables were compared using unpaired t tests. A values of P≦0.05 was considered to be statistically significant.
In FIG. 14B, the y-axis represents the number of BrdU proliferating cells.

amyloid-beta (Abeta) = molecular target: T1, amyloid-beta (Abeta) (Homo sapiens, UniProt P05067); assay: In vitro ligand binding ELISA, immobilized amyloid-beta; conditions: ligand 5 micrograms per well; fusion protein at increasing dilutions, 37° C. one hour
T1 construct: Amyloid Beta (1-40) from Biosource; purchased Biosource
T1 sequence (P05067 672-711 limits assumed): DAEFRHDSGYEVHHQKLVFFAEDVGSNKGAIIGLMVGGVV
Method: For example, the RAGE fusion protein may be used in a binding assay to identify potential RAGE ligands. In one example embodiment of such a binding assay, a known RAGE ligand may coated onto a solid substrate (e.g., Maxisorb plates) at a concentration of about 5 micrograms per well, where each well contains a total volume of about 100 microliters (4). The plates may be incubated at 4° C. overnight to allow the ligand to absorb or bind to the substrate. Alternatively, shorter incubation periods at higher temperature (e.g., room temperature) may be used. […] The RAGE fusion protein bound to the immobilized ligand may be detected in a variety of ways. […] The bound complex may be detected by adding the alkaline phosphatase substrate, para-nitrophenylphosphate (PNPP), and measuring conversion of PNPP to para-nitrophenol (PNP) as an increase in absorbance at 405 nm. […] In the absence of ligand (i.e., coating with only BSA) there was no increase in absorbance. […] Binding was detected by the addition of an immunodetection complex containing a monoclonal mouse anti-human IgG1 diluted 1:11,000 to a final assay concentration (FAC) of 21 ng/100 μL, a biotinylated goat anti-mouse IgG diluted 1:500, to a FAC of […], and an avidin-linked alkaline phosphatase. […]

[3] = High dose 1.0 mg/animal qod × 4, loading dose 3 mg/animal
[4] = Low dose 0.3 mg/animal qod × 4, loading dose 3 mg/animal

B1: TTP-4000: four domain RAGE fusion protein: human RAGE N-terminal sequence (to position 251) linked to human IgG Fc (γ1) without hinge; SEQ ID NO: 34/56 (protein)
chain: QNITARIGEPLVLKCKGAPKKPPQRLEWKLNTGRTEAWKVLSPQGGGPWDSVARVLPNGSLFLPAVGIQDEGIFRCQAMNRNGKETKSNYRVRVYQIPGKPEIVDSASELTAGVPNKVGTCVSEGSYPAGTLSWHLDGKPLVPNEKGVSVKEQTRRHPETGLFTLQSELMVTPARGGDPRPTFSCSFSPGLPRHRALRTAPIQPRVWEPVPLEEVQLVVEPEGGAVAPPSVFLFPPKPKDTLMISRTPEVTCVVVDVSHEDPEVKFNWYVDGVEVHNAKTKPREEQYNSTYRVVSVLTVLHQDWLNGKEYKCKVSNKALPAPIEKTISKAKGQPREPQVYTLPPSRDELTKNQVSLTCLVKGFYPSDIAVEWESNGQPENNYKTTPPVLDSDGSFFLYSKLTVDKSRWQQGNVFSCSVMHEALHNHYTQKSLSLSPGK
[1]; S100b 0.1 mg/ml FAC
  reduction of S100b induction of TNF-α: ~70%
[1]; S100b 0.1 mg/ml
  S100b induction of TNF-α, comparison in words: at least as effective in blocking S100b induction of TNF-α as is sRAGE
[2]; 4 days after injury, dose-responsive
  vascular smooth muscle cell proliferation (BrdU-positive nuclei): significantly reduced
[2]; [3]
  Intimal area: 0.16 ± 0.02 mm^2
  Medial area: 0.11 ± 0.01 mm^2
[2]; [4]
  Intimal area: 0.18 ± 0.04 mm^2
  Medial area: 0.11 ± 0.02 mm^2
amyloid-beta (Abeta)
  binding to immobilized amyloid-beta (increase in absorbance at 405 nm): specifically interact
